According to patent US20240043528A1, “NANOBODY-OGA FUSIONS AND USES THEREOF” (President and Fellows of Harvard College, priority 2020, published 2024):

What was measured:
GFP-Nup62 = test: Deglycosylation of GFP-Nup62 co-expressed with OGA constructs (anti-EPEA enrichment, RL2 immunoblot); assay type: cell-based, human; conditions: co-expressed in HEK 293T cells
Protocol: (§1) HEK 293T cells were cultured in Dulbecco's Modified Eagle Medium (DMEM, Cat #11995073) supplemented with penicillin (50 μg/mL) and streptomycin (50 μg/mL) along with 10% (v/v) FBS. Transfections of all plasmids in this study were performed using TransIT-PRO® (Mirus Bio, Cat #MIR 5740) according to the manufacturer's instructions.
Glycoproteins Nup62, Sp1, JunB, c-Jun were subcloned into pcDNA3.1 vector with a GFP and a Flag-tag or a BC2 tag in the N-terminus and an EPEA tag in the C terminus respectively, unless otherwise noted. For all split OGA constructs with or without the fusion of nanobody GFP, N fragments were tagged with myc tag and C fragments were tagged with HA tag respectively. Human SP1 cDNA ORF plasmid (Cat #HG12024-G), human c-Fos cDNA ORF plasmid, and human OGT cDNA ORF cloned with a C-terminal His tag (Cat #HG11279-M) were purchased from Sino Biological. For subcloning, PCR fragments were amplified using Q5 High-Fidelity 2× Master Mix (New England BioLabs, Cat #M0492S). The vectors were double-digested and ligated to gel-purified PCR products by T4 ligation using T4 DNA ligase (New England BioLabs, Cat #M0202S) or by Gibson assembly using Gibson Assembly Master mix (New England BioLabs, Cat #E2611L). c-Fos was subcloned into a pcDNA3.1 vector with a 14-residue Ubc tag (amino acids: QADQEAKELARQIA (SEQ ID NO: 11)), Flag tag, and EPEA tag at the C terminus. All nanobody DNA fragments were synthesized by IDT.
After 36-48 h of transfection, cells were harvested and washed with PBS once. Cells were lysed with M-PER lysis buffer containing 1× protease inhibitor cocktail and 10 μM Thiamet-G unless otherwise noted. Protein concentrations were determined by the BCA assay kit (G-Biosciences, 786) on a multi-mode microplate reader FilterMax F3 (Molecular Devices LLC, Sunnyvale, CA).
For immunoprecipitation of proteins with the C-terminal EPEA tag, cell lysates with equal amounts of protein were diluted with PBS and incubated with C-tag affinity matrix (Thermo Scientific) for 1 h at room temperature, with end-to-end rotation, following the manufacturer's instructions. After washing three times with PBS buffer, the enriched proteins were eluted with SDS sample buffer and subjected to SDS-PAGE.
For immunoblotting analysis, proteins were transferred to a nitrocellulose membrane using iBlot (Thermo Scientific). Membranes were blocked with Tris buffered saline containing 0.1% Tween-20 and 5% BSA and incubated with the primary antibodies (1:1000 dilution) and the secondary antibodies (1:10,000 dilution) sequentially. Immunoblot images were captured by Azure Imager C600. Analysis of immunoblots was conducted with Fiji ImageJ. All IR fluorescence western blot images are converted into grayscale images by Fiji ImageJ. The unsaturated exposure of immunoblot images was used for quantification with the appropriate loading controls as standards. Statistical analysis of the data was performed with Prism 8, using data from at least three independent experiments.

OGT = biological target: T1, OGT (Homo sapiens, UniProt O15294); test: Co-immunoprecipitation of OGA constructs with His-tagged OGT; assay type: cell-based; conditions: OGT-His co-transfected in HEK 293T cells
T1 construct: host or cells: HEK 293T
T1 sequence (O15294 1-1046): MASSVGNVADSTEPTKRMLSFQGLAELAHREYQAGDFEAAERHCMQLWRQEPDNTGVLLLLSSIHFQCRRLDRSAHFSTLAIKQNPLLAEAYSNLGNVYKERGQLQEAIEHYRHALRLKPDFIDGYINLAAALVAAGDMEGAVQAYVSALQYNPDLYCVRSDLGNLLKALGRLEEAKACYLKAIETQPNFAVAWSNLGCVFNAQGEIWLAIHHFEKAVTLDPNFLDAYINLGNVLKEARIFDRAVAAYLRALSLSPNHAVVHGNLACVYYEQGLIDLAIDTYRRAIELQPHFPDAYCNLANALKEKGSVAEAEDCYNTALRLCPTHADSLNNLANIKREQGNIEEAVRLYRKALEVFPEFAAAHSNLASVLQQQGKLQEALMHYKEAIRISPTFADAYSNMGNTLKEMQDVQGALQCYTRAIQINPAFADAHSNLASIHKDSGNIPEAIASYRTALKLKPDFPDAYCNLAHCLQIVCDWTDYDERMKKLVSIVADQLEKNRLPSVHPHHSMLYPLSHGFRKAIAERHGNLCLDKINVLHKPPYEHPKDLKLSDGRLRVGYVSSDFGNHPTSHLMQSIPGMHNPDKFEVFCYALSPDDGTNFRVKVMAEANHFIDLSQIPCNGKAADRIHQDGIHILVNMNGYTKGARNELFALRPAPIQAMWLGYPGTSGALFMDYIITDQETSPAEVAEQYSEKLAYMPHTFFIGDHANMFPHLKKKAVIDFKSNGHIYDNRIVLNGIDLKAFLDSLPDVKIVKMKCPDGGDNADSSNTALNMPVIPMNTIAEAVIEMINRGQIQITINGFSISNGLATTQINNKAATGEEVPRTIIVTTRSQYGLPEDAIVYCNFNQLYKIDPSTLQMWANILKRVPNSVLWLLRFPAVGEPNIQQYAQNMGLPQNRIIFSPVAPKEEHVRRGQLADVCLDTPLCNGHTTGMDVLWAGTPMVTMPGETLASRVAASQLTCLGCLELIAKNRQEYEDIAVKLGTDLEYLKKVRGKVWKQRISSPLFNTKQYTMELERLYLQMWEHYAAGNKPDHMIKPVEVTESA
Protocol: For immunoprecipitation of proteins with His tag, cells were lysed in a buffer containing 50 mM Tris HCl pH 8.0, 150 mM NaCl, 1% Triton X-100, 5% glycerol, 1× protease inhibitor cocktail and 10 μM Thiamet-G on ice for 20 min. Cell lysates with equal amounts of protein were diluted with wash buffer (50 mM Tris HCl pH 8.0, 150 mM NaCl, 0.01% Tween-20) and incubated with pre-washed His-Tag Dynabeads (Invitrogen, 10103D) at room temperature for 20 min with mixing, following the manufacturer's instructions. After washed 4 times with wash buffer, the enriched proteins were eluted with elution buffer (300 mM Imidazole, 50 mM Tris HCl pH 8.0, 150 mM NaCl, 0.01% Tween-20) on a shaker for 10 min at room temperature.

GFP-Sp1 = test: Deglycosylation of GFP-Sp1 co-expressed with OGA constructs (anti-EPEA enrichment, immunoblot); assay type: cell-based, human; conditions: co-expressed in HEK 293T cells
Protocol: as §1
Glycoproteins Nup62, Sp1, JunB, c-Jun were subcloned into pcDNA3.1 vector with a GFP and a Flag-tag or a BC2 tag in the N-terminus and an EPEA tag in the C terminus respectively, unless otherwise noted. For all split OGA constructs with or without the fusion of nanobody GFP, N fragments were tagged with myc tag and C fragments were tagged with HA tag respectively. […]
After 36-48 h of transfection, cells were harvested and washed with PBS once. […] Protein concentrations were determined by the BCA assay kit (G-Biosciences, 786) on a multi-mode microplate reader FilterMax F3 (Molecular Devices LLC, Sunnyvale, CA). […]
For immunoblotting analysis, proteins were transferred to a nitrocellulose membrane using iBlot (Thermo Scientific). […] All IR fluorescence western blot images are converted into grayscale images by Fiji ImageJ. The unsaturated exposure of immunoblot images was used for quantification with the appropriate loading controls as standards. […]

interaction with OGT (OGT): unable to interact with OGT
B1: split OGA (N2+C3): split OGA fragments N2 and C3 without nanobody (protein)
chain 1: MEQKLISEEDLAIAMVQKESQATLEERESELSSNPAASAGASLEPPAAPAPGEDNPAGAGGAAVAGAAGGARRFLCGVVEGFYGRPWVMEQRKELFRRLQKWELNTYLYAPKDDYKHRMFWREMYSVEEAEQLMTLISAAREYEIEFIYAISPGLDITFSNPKEVSTLKRKLDQVSQFGCRSFALLFDDIDHNMCAADKEVFSSFAHAQVSITNEIYQYLGEPETFLFCPTEYCGTFCYPNVSQSPYLRTVGEKLLPGIEVLWTGPKVVSKEIPVESIEEVSKIIKRAPVIWDNIHANDYDQKRLFLGPYKGRSTELIPRLKGVLTNPNCEFEANYVAIHTLATWYKSNMNGVRKDVVMTDSEDSTVSIQIKLENEGSDEDIETDVLYSPQMALKLALTEWLQEFGVPHQYSSR
chain 2: MAYPYDVPDYAAIAEKPLYTAEPVTLEDLQLLADLFYLPYEHGPKGAQMLREFQWLRANSSVVSVNCKGKDSEKIEEWRSRAAKFEEMCGLVMGMFTRLSNCANRTILYDMYSYVWDIKSIMSMVKSFVQWLGCRSHSSAQFLIGDQEPWAFRGGLAGEFQRLLPIDGANDLFFQPP
deglycosidase activity / O-GlcNAc modification level on GFP-Nup62 (GFP-Nup62): limited substrate activity | deglycosidase activity / O-GlcNAc modification level on GFP-Nup62 (GFP-Nup62; listed as N2-C3 pair): significantly reduced activity | deglycosidase activity / O-GlcNAc level on GFP-Sp1 (GFP-Sp1): weak inherent deglycosidase activity
